Measured values taken from paper PMC3228903.

Columns and labels:
[1] = substrate: NCc1ccccc1; assay: purified protein, by the assay type; conditions: pH 7.5
[2] = substrate: NCCC(=O)c1ccccc1N; assay: Steady-state substrate oxidation and pH dependence, WT MAO B; type: biochemical, human; conditions: other: WT MAO B, pH 7.5
[3] = substrate: NCCc1ccccc1; assay: as above; type: biochemical, human; conditions: other: WT MAO B, pH 7.5
[4] = substrate: NCCC(=O)c1ccccc1N; assay: Steady-state substrate oxidation and pH dependence, Ile199Ala/Tyr326Ala MAO B; type: biochemical, human; conditions: other: I199A-Y326A, pH 7.5
[5] = substrate: NCCc1ccccc1; assay: as above; type: biochemical, human; conditions: other: I199A-Y326A, pH 7.5
[6] = substrate: NCCC(=O)c1ccccc1N; assay: Steady-state substrate oxidation and pH dependence, Ile199Ala MAO B; type: biochemical, human; conditions: other: I199A, pH 7.5
[7] = substrate: NCCc1ccccc1; assay: as above; type: biochemical, human; conditions: other: I199A, pH 7.5

B1: WT MAO B (Homo sapiens) (protein)
chain: MSNKCDVVVVGGGISGMAAAKLLHDSGLNVVVLEARDRVGGRTYTLRNQKVKYVDLGGSYVGPTQNRILRLAKELGLETYKVNEVERLIHHVKGKSYPFRGPFPPVWNPITYLDHNNFWRTMDDMGREIPSDAPWKAPLAEEWDNMTMKELLDKLCWTESAKQLATLFVNLCVTAETHEVSALWFLWYVKQCGGTTRIISTTNGGQERKFVGGSGQVSERIMDLLGDRVKLERPVIYIDQTRENVLVETLNHEMYEAKYVISAIPPTLGMKIHFNPPLPMMRNQMITRVPLGSVIKCIVYYKEPFWRKKDYCGTMIIDGEEAPVAYTLDDTKPEGNYAAIMGFILAHKARKLARLTKEERLKKLCELYAKVLGSLEALEPVHYEEKNWCEEQYSGGCYTTYFPPGILTQYGRVLRQPVDRIYFAGTETATHWSGYMEGAVEAGERAAREILHAMGKIPEDEIWQSEPESVDVPAQPITTTFLERHLPSVPGLLRLIGLTTIFSATALGFLAHKRGLLVRV
For B1, the Km ([1]; other: WT MAO B) was 150 ± 27 µM, the kcat ([1]; other: WT MAO B) was 5 s⁻¹ and the kcat/Km ([1]; other: WT MAO B) was 33300 M⁻¹ s⁻¹. For the same protein, the Km [2] was 27 ± 2 µM, the kcat [2] was 1.6 ± 0.0167 s⁻¹ and the kcat/Km [2] was 59200 ± 4500 M⁻¹ s⁻¹. It also gave a Km [3] of 9.4 ± 0.9 µM, a kcat [3] of 2.87 ± 0.05 s⁻¹ and a kcat/Km [3] of 300000 ± 33300 M⁻¹ s⁻¹.

B2: Ile199Ala/Tyr326Ala MAO B (Homo sapiens; I199A/Y326A) (protein)
chain: MSNKCDVVVVGGGISGMAAAKLLHDSGLNVVVLEARDRVGGRTYTLRNQKVKYVDLGGSYVGPTQNRILRLAKELGLETYKVNEVERLIHHVKGKSYPFRGPFPPVWNPITYLDHNNFWRTMDDMGREIPSDAPWKAPLAEEWDNMTMKELLDKLCWTESAKQLATLFVNLCVTAETHEVSALWFLWYVKQCGGTTRIASTTNGGQERKFVGGSGQVSERIMDLLGDRVKLERPVIYIDQTRENVLVETLNHEMYEAKYVISAIPPTLGMKIHFNPPLPMMRNQMITRVPLGSVIKCIVYYKEPFWRKKDYCGTMIIDGEEAPVAATLDDTKPEGNYAAIMGFILAHKARKLARLTKEERLKKLCELYAKVLGSLEALEPVHYEEKNWCEEQYSGGCYTTYFPPGILTQYGRVLRQPVDRIYFAGTETATHWSGYMEGAVEAGERAAREILHAMGKIPEDEIWQSEPESVDVPAQPITTTFLERHLPSVPGLLRLIGLTTIFSATALGFLAHKRGLLVRV
For B2, the Km [4] was 289 ± 23 µM, the kcat [4] was 1.07 ± 0.0333 s⁻¹ and the kcat/Km [4] was 3670 ± 333 M⁻¹ s⁻¹. For the same protein, the Km [5] was 703 ± 58 µM, the kcat [5] was 1.83 ± 0.0333 s⁻¹ and the kcat/Km [5] was 2670 ± 167 M⁻¹ s⁻¹.

B3: Ile199Ala MAO B (Homo sapiens; I199A) (protein)
chain: MSNKCDVVVVGGGISGMAAAKLLHDSGLNVVVLEARDRVGGRTYTLRNQKVKYVDLGGSYVGPTQNRILRLAKELGLETYKVNEVERLIHHVKGKSYPFRGPFPPVWNPITYLDHNNFWRTMDDMGREIPSDAPWKAPLAEEWDNMTMKELLDKLCWTESAKQLATLFVNLCVTAETHEVSALWFLWYVKQCGGTTRIASTTNGGQERKFVGGSGQVSERIMDLLGDRVKLERPVIYIDQTRENVLVETLNHEMYEAKYVISAIPPTLGMKIHFNPPLPMMRNQMITRVPLGSVIKCIVYYKEPFWRKKDYCGTMIIDGEEAPVAYTLDDTKPEGNYAAIMGFILAHKARKLARLTKEERLKKLCELYAKVLGSLEALEPVHYEEKNWCEEQYSGGCYTTYFPPGILTQYGRVLRQPVDRIYFAGTETATHWSGYMEGAVEAGERAAREILHAMGKIPEDEIWQSEPESVDVPAQPITTTFLERHLPSVPGLLRLIGLTTIFSATALGFLAHKRGLLVRV
In the case of B3, the Km [6] is reported as 94 ± 8 µM, the kcat [6] is reported as 1.47 ± 0.0333 s⁻¹ and the kcat/Km [6] is reported as 15600 ± 1370 M⁻¹ s⁻¹. It also gave a Km [7] of 40 ± 2 µM, a kcat [7] of 2.05 ± 0.0333 s⁻¹ and a kcat/Km [7] of 51700 ± 3330 M⁻¹ s⁻¹. It also gave a Km ([1]; other: I199A) of 2133 ± 409 µM, a kcat ([1]; other: I199A) of 3.8 s⁻¹ and a kcat/Km ([1]; other: I199A) of 1780 M⁻¹ s⁻¹.
